# Assay results taken from article PMC3759425, “Insights into the Cross-Immunity Mechanism within Effector Families of Bacteria Type VI Secretion System from the Structure of StTae4-EcTai4 Complex” (PLoS ONE, 2013).
# B1: StTae4 (type VI amidase effector 4 from Salmonella typhimurium) (enzyme)
# chain: MNRPSFNEAWLAFRKVNHSVADVGSIIGGNVGKNITGGYFQNACPIRMSYVLNATGFPIARNSPYAKVSGADNKFYIYRVNDMIDYLTHTMGKPDLIVNNPKQSDFIGKKGIIVVKGHGWSNARGHVTLWNGSICSDQCHLLNDPDNGPFVPEVGTLWILP
# notes: Tae4, type VI amidase effector 4, S. Typhimurium, full length, amplified from genomic DNA; cloned into NcoI/XhoI of pET28at-plus (introduces an N-terminal TEV cleavage site); Se-Met-labelled protein was used for the crystal structure; The vector adds an N-terminal TEV cleavage site; the pull-down methods call the effectors 'native effector proteins'; source: E. coli BL21 (DE3), co-expressed with …
# B2: EcTai4 (type VI amidase immunity 4 from Enterobacter cloacae), residues 19-117 (domain or fragment)
# chain: QTLPDISTFSQQQIFENWVQNRCIGKIADSKSLKEDADASAAAWLEASNLPAENFEKADEVIVSLLKQKVGGTEPGHYQILKCTLIANSDAIRPLKSSK
# notes: Tai4, type VI amidase immunity 4, E. cloacae, residues 19-117 without the N-terminal 18-residue signal peptide, amplified from genomic DNA; pET21a; Se-Met-labelled protein was used for the crystal structure; The construct of the His-EcTai4 of the pull-down is not described on its own; also called His-EcTai4; His-tag EcTai4; source: E. coli BL21 (DE3), co-expressed with StTae4, purified (crystal, …)
# Key:
# [1] = biological target: B2; test: SAXS; purified complex in solution at 1, 3 and 5 mg/ml; theoretical curve of one tetramer of the crystal fitted to the experimental data, discrepancy 1.625; settings: both partners purified
# [2] = biological target: the molecule itself; test: as above
Binder,stoichiometry N [1],stoichiometry N [2]
B1,2 Tae4 molecules per Tai4 homodimer,–
B2,–,2
